Experimental data: patent publication US20170015742A1 (published 2017)
Changes are numbered by the printed parent chain.

B1: CODV004 (bispecific antibody, human IgG1, kappa, L234A L235A)
heavy: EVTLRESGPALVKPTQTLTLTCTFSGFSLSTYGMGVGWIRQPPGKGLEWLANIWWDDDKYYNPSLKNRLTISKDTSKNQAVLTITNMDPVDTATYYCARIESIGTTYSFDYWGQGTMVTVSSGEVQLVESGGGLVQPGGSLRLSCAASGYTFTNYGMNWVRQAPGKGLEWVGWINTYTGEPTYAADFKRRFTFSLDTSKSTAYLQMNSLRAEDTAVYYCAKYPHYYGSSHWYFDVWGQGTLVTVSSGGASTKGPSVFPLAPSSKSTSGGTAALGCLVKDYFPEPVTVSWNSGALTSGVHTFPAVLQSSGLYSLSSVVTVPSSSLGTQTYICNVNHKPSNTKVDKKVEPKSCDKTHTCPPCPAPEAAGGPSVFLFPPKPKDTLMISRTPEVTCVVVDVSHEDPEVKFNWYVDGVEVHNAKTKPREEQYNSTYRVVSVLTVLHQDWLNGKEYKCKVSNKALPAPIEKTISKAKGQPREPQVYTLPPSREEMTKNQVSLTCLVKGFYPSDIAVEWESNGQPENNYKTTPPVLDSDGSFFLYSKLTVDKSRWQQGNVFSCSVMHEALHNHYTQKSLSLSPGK
light: DIQMTQSPSSLSASVGDRVTITCSASQDISNYLNWYQQKPGKAPKVLIYFTSSLHSGVPSRFSGSGSGTDFTLTISSLQPEDFATYYCQQYSTVPWTFGQGTKVEIKGGGSGGGDFQLTQSPSSLSASVGDRVTITCERSSGDIGDSYVSWYQQKPGKAPKNVIYADDQRPSGVPSRFSGSGSGNSASLTISSLQPEDFATYFCQSYDINIDIVFGQGTKVEIKGGGSGRTVAAPSVFIFPPSDEQLKSGTASVVCLLNNFYPREAKVQWKVDNALQSGNSQESVTEQDSKDSTYSLSSTLTLSKADYEKHKVYACEVTHQGLSSPVTKSFNRGEC
notes: Anti-human VEGF-A/anti-human PDGF-BB cross-over DVD-Ig (CO-DVD-Ig); also called PR-1565051
B2: CODV005 (bispecific antibody, human IgG1, kappa, L234A L235A)
heavy: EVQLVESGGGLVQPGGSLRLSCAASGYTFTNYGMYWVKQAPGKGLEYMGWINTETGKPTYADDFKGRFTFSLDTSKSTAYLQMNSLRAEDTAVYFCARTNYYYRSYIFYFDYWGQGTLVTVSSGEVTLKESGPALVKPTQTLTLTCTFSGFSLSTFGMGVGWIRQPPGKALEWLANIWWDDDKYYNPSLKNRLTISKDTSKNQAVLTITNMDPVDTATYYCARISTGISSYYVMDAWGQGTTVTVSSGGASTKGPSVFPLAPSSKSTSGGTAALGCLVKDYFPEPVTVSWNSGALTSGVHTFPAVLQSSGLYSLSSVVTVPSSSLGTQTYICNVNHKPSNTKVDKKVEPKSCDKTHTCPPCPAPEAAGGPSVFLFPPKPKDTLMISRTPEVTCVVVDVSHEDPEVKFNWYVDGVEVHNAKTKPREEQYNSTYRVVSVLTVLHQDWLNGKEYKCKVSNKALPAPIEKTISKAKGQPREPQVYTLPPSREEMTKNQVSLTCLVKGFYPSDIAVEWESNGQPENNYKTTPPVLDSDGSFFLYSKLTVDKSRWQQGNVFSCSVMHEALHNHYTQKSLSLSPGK
light: DFQLTQSPSSLSASVGDRVTITCERSSGDIGDTYVSWYQQKPGKAPKNVIYGNDQRPSGVPSRFSGSGSGNSATLTISSLQPEDFATYFCQSYDSDIDIVFGQGTKVEIKGGGSGGGDTQLTQSPSSLSASVGDRVTISCRASESVSTHMHWYQQKPGKAPKLLIYGASNLESGVPSRFSGSGSGTDFTLTISSLQPEDFATYFCQQSWNDPFTFGQGTKVEIKGGGSGRTVAAPSVFIFPPSDEQLKSGTASVVCLLNNFYPREAKVQWKVDNALQSGNSQESVTEQDSKDSTYSLSSTLTLSKADYEKHKVYACEVTHQGLSSPVTKSFNRGEC
notes: Anti-human VEGF-A/anti-human PDGF-BB cross-over DVD-Ig (CO-DVD-Ig); also called PR-1565083
B3: CODV006 (bispecific antibody, human IgG1, kappa, L234A L235A)
heavy: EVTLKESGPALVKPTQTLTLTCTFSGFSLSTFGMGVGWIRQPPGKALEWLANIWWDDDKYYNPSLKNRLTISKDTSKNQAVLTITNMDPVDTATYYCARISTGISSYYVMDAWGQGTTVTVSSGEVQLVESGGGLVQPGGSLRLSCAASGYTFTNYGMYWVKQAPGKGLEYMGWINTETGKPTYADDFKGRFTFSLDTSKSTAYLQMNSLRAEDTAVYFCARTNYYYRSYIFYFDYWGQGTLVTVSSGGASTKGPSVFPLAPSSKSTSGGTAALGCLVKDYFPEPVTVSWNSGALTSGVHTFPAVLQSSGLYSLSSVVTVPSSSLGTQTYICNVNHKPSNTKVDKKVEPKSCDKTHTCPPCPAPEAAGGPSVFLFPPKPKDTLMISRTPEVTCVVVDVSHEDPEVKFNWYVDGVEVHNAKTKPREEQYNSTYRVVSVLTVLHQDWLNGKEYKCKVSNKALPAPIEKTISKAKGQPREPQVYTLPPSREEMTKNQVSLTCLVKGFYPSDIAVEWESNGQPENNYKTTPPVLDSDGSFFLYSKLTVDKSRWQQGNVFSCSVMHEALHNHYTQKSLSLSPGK
light: DTQLTQSPSSLSASVGDRVTISCRASESVSTHMHWYQQKPGKAPKLLIYGASNLESGVPSRFSGSGSGTDFTLTISSLQPEDFATYFCQQSWNDPFTFGQGTKVEIKGGGSGGGDFQLTQSPSSLSASVGDRVTITCERSSGDIGDTYVSWYQQKPGKAPKNVIYGNDQRPSGVPSRFSGSGSGNSATLTISSLQPEDFATYFCQSYDSDIDIVFGQGTKVEIKGGGSGRTVAAPSVFIFPPSDEQLKSGTASVVCLLNNFYPREAKVQWKVDNALQSGNSQESVTEQDSKDSTYSLSSTLTLSKADYEKHKVYACEVTHQGLSSPVTKSFNRGEC
notes: Anti-human VEGF-A/anti-human PDGF-BB cross-over DVD-Ig (CO-DVD-Ig); also called PR-1565084
B4: CODV007 (bispecific antibody, human IgG1, kappa, L234A L235A)
heavy: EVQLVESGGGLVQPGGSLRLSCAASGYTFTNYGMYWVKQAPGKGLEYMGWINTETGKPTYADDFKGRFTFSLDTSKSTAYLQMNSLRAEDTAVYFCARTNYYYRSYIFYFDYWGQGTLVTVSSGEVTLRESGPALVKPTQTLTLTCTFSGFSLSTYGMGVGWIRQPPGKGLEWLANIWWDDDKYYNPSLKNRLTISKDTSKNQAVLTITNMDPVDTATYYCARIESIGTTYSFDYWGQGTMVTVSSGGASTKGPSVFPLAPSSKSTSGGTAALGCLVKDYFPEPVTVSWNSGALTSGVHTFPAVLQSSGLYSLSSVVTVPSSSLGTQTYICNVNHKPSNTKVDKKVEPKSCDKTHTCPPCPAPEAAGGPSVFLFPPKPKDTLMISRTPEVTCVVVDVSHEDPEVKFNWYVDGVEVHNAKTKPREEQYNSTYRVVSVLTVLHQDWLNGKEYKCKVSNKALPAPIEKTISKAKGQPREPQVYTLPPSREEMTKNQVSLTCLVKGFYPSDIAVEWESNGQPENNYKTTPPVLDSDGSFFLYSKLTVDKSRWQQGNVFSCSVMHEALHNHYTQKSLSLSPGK
light: B2 light with T33S, G52A, N53D, T74S, S95I, D96N
notes: Anti-human VEGF-A/anti-human PDGF-BB cross-over DVD-Ig (CO-DVD-Ig); also called PR-1565085
B5: CODV008 (bispecific antibody, human IgG1, kappa, L234A L235A)
heavy: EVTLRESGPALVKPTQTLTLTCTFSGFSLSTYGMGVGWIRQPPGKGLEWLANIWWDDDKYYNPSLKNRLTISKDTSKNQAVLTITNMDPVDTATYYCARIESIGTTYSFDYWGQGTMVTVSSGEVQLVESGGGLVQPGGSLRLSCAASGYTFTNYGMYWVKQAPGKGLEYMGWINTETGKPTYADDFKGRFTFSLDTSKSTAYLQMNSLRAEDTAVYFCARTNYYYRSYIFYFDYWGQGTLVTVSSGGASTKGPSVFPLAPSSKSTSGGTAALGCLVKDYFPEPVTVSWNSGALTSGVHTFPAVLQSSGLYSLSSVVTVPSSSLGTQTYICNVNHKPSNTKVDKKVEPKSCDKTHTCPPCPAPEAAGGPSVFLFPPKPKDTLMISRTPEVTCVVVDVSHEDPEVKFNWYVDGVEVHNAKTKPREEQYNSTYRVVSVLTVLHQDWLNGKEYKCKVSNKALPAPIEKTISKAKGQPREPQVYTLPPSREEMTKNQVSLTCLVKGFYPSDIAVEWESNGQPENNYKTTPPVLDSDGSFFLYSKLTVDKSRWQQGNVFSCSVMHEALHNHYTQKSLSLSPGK
light: B3 light with T147S, G166A, N167D, T188S, S209I, D210N
notes: Anti-human VEGF-A/anti-human PDGF-BB cross-over DVD-Ig (CO-DVD-Ig); also called PR-1565086
B6: CODV009 (bispecific antibody, human IgG1, kappa, L234A L235A)
heavy: EVQLVQSGSELKKPGASVKVSCKASGYTFTNYGMYWVRQAPGQGLEWMGWINTETGKPTYADDFKGRFVFSLDTSVSTAYLQISSLKAEDTAVYYCARTNYYYRSYIFYFDYWGQGTMVTVSSGEVTLRESGPALVKPTQTLTLTCTFSGFSLSTYGMGVGWIRQPPGKALEWLANIWWDDDKYYNPSLKNRLTISKDTSKNQVVLTMTNMDPVDTATYYCARIESIGTTYSFDYWGQGTMVTVSSGGASTKGPSVFPLAPSSKSTSGGTAALGCLVKDYFPEPVTVSWNSGALTSGVHTFPAVLQSSGLYSLSSVVTVPSSSLGTQTYICNVNHKPSNTKVDKKVEPKSCDKTHTCPPCPAPEAAGGPSVFLFPPKPKDTLMISRTPEVTCVVVDVSHEDPEVKFNWYVDGVEVHNAKTKPREEQYNSTYRVVSVLTVLHQDWLNGKEYKCKVSNKALPAPIEKTISKAKGQPREPQVYTLPPSREEMTKNQVSLTCLVKGFYPSDIAVEWESNGQPENNYKTTPPVLDSDGSFFLYSKLTVDKSRWQQGNVFSCSVMHEALHNAYTQKSLSLSPGK
light: EFVLTQSPGTLSLSPGERATLSCERSSGDIGDSYVSWYQQKPGQAPRLVIYADDQRPSGIPDRFSGSGSGTDFTLTISRLEPEDFAVYYCQSYDINIDIVFGGGTKVEIKGGGSGGGDTVLTQSPATLSLSPGERATLSCRASESVSTHMHWYQQKPGQAPRLLIYGASNLESGVPARFSGSGSGTDFTLTISSLEPEDFAVYFCQQSWNDPFTFGQGTKLEIKGGGSGRTVAAPSVFIFPPSDEQLKSGTASVVCLLNNFYPREAKVQWKVDNALQSGNSQESVTEQDSKDSTYSLSSTLTLSKADYEKHKVYACEVTHQGLSSPVTKSFNRGEC
notes: Anti-human VEGF-A/anti-human PDGF-BB cross-over DVD-Ig (CO-DVD-Ig); also called PR-1571821
B7: CODV010 (bispecific antibody, human IgG1, kappa, L234A L235A)
heavy: EVTLRESGPALVKPTQTLTLTCTFSGFSLSTYGMGVGWIRQPPGKALEWLANIWWDDDKYYNPSLKNRLTISKDTSKNQVVLTMTNMDPVDTATYYCARIESIGTTYSFDYWGQGTMVTVSSGEVQLVQSGSELKKPGASVKVSCKASGYTFTNYGMYWVRQAPGQGLEWMGWINTETGKPTYADDFKGRFVFSLDTSVSTAYLQISSLKAEDTAVYYCARTNYYYRSYIFYFDYWGQGTMVTVSSGGASTKGPSVFPLAPSSKSTSGGTAALGCLVKDYFPEPVTVSWNSGALTSGVHTFPAVLQSSGLYSLSSVVTVPSSSLGTQTYICNVNHKPSNTKVDKKVEPKSCDKTHTCPPCPAPEAAGGPSVFLFPPKPKDTLMISRTPEVTCVVVDVSHEDPEVKFNWYVDGVEVHNAKTKPREEQYNSTYRVVSVLTVLHQDWLNGKEYKCKVSNKALPAPIEKTISKAKGQPREPQVYTLPPSREEMTKNQVSLTCLVKGFYPSDIAVEWESNGQPENNYKTTPPVLDSDGSFFLYSKLTVDKSRWQQGNVFSCSVMHEALHNAYTQKSLSLSPGK
light: DTVLTQSPATLSLSPGERATLSCRASESVSTHMHWYQQKPGQAPRLLIYGASNLESGVPARFSGSGSGTDFTLTISSLEPEDFAVYFCQQSWNDPFTFGQGTKLEIKGGGSGGGEFVLTQSPGTLSLSPGERATLSCERSSGDIGDSYVSWYQQKPGQAPRLVIYADDQRPSGIPDRFSGSGSGTDFTLTISRLEPEDFAVYYCQSYDINIDIVFGGGTKVEIKGGGSGRTVAAPSVFIFPPSDEQLKSGTASVVCLLNNFYPREAKVQWKVDNALQSGNSQESVTEQDSKDSTYSLSSTLTLSKADYEKHKVYACEVTHQGLSSPVTKSFNRGEC
notes: Anti-human VEGF-A/anti-human PDGF-BB cross-over DVD-Ig (CO-DVD-Ig); also called PR-1571823
B8: CODV011 (bispecific antibody, human IgG1, kappa, L234A L235A)
heavy: EVQLVQSGSELKKPGASVKVSCKASGYTFTNYGMYWVRQAPGQGLEWMGWINTETGKPTYADDFKGRFVFSLDTSVSTAYLQISSLKAEDTAVYYCARTNYYYRSYIFYFDYWGQGTMVTVSSGGGGSGGGGSEFVLTQSPGTLSLSPGERATLSCERSSGDIGDSYVSWYQQKPGQAPRLVIYADDQRPSGIPDRFSGSGSGTDFTLTISRLEPEDFAVYYCQSYDINIDIVFGGGTKVEIKGGGSGASTKGPSVFPLAPSSKSTSGGTAALGCLVKDYFPEPVTVSWNSGALTSGVHTFPAVLQSSGLYSLSSVVTVPSSSLGTQTYICNVNHKPSNTKVDKKVEPKSCDKTHTCPPCPAPEAAGGPSVFLFPPKPKDTLMISRTPEVTCVVVDVSHEDPEVKFNWYVDGVEVHNAKTKPREEQYNSTYRVVSVLTVLHQDWLNGKEYKCKVSNKALPAPIEKTISKAKGQPREPQVYTLPPSREEMTKNQVSLTCLVKGFYPSDIAVEWESNGQPENNYKTTPPVLDSDGSFFLYSKLTVDKSRWQQGNVFSCSVMHEALHNAYTQKSLSLSPGK
light: EVTLRESGPALVKPTQTLTLTCTFSGFSLSTYGMGVGWIRQPPGKALEWLANIWWDDDKYYNPSLKNRLTISKDTSKNQVVLTMTNMDPVDTATYYCARIESIGTTYSFDYWGQGTMVTVSSGGGGSGGGGSDTVLTQSPATLSLSPGERATLSCRASESVSTHMHWYQQKPGQAPRLLIYGASNLESGVPARFSGSGSGTDFTLTISSLEPEDFAVYFCQQSWNDPFTFGQGTKLEIKGGGSGRTVAAPSVFIFPPSDEQLKSGTASVVCLLNNFYPREAKVQWKVDNALQSGNSQESVTEQDSKDSTYSLSSTLTLSKADYEKHKVYACEVTHQGLSSPVTKSFNRGEC
notes: Anti-human VEGF-A/anti-human PDGF-BB cross-over DVD-Ig (CO-DVD-Ig); also called PR-1575521

target: T1, Human VEGF-A 165 (human, UniProt P15692 207-395); assay: SPR (Biacore), method of Example 1.1
T1 construct: also called hVEGF165
T1 sequence (P15692 other isoform, or with tags, fused parts or gaps limits assumed): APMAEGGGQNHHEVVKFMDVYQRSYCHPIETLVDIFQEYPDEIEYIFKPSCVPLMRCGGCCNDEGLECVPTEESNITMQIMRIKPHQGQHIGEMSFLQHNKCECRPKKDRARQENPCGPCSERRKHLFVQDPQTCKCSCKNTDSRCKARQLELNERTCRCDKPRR
Experimental: (§1) Unreacted moieties on the biosensor surface were blocked with ethanolamine. For kinetic analysis, rate equations derived from the 1:1 Langmuir binding model were fitted simultaneously to multiple antigen injections (using global fit analysis) with the use of Scrubber 2 (BioLogic Software), Biacore Biaevaluation 4.0.1 software or Biacore T100 Evaluation software. Purified antibodies or DVD-Ig molecules were diluted in running buffer for capture across goat anti-human Fc reaction surfaces. Antibodies or DVD-Ig molecules to be captured as a ligand (1 μg/ml) were injected over reaction matrices at a flow rate of 10 μl/minute. During the assay, all measurements were referenced against the capture surface alone (i.e., with no captured antibody or DVD-Ig molecule). […] The equilibrium dissociation constant KD (M) of the reaction between antibodies and the target antigen was then calculated from the kinetic rate constants by the following formula: KD=Koff/Kₒₙ. Binding was recorded as a function of time and kinetic rate constants were calculated. In this assay, on-rates as fast as 10⁶M⁻¹s⁻¹ and off-rates as slow as 10⁻⁶ s⁻¹ could be measured.

Row | Binder | binding result | Kd | kon
1 | B1 | no binding | – | –
2 | B2 | – | 35000 pM | –
3 | B3 | no binding | – | –
4 | B4 | – | 22000 pM | –
5 | B5 | no binding | – | –
6 | B6 | – | 26000 pM | –
7 | B7 | – | 6600 pM | 57000 M⁻¹ s⁻¹
8 | B8 | – | 38 pM | 1.1e+06 M⁻¹ s⁻¹

target: T2, Human PDGF-BB (human, UniProt P01127 82-190); assay: SPR (Biacore), method of Example 1.1
T2 construct: also called hPDGF-BB
T2 sequence (P01127 82-190 limits assumed): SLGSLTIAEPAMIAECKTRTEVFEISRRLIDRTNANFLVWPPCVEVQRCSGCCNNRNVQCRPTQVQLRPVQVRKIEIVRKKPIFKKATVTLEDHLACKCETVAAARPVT
Experimental: as §1

Row | Binder | Kd | kon
9 | B1 | 87 pM | 1e+07 M⁻¹ s⁻¹
10 | B2 | 11 pM | 1.2e+07 M⁻¹ s⁻¹
11 | B3 | 9.7 pM | 2.2e+07 M⁻¹ s⁻¹
12 | B4 | 7.3 pM | 2.9e+07 M⁻¹ s⁻¹
13 | B5 | 7.4 pM | 1.7e+07 M⁻¹ s⁻¹
14 | B6 | 5.6 pM | 3.5e+07 M⁻¹ s⁻¹
15 | B7 | 4 pM | 4.1e+07 M⁻¹ s⁻¹
16 | B8 | 1.8 pM | 3.8e+07 M⁻¹ s⁻¹
